The values below come from the RNAGym collection of RNA variant scans (doi:10.1073/pnas.2313332121).

Variants at the floor of the assay were thinned out.

B1: TPR 5TU (parent)
chain: GGAUCUUCUCGAUCUAACAAAAAAGACAAAUCUGCCACAAAGCUUGAGAGCAUCUUCGGAUGCAGAGGCGGCAGCCUUCGGUGGCGCGAUAGCGCCAACGUUCUCAACUAUGACACGCAAAACGCGUGCUCCGUUGAAUGGAGUUUAUCAUG

In this data set the parent is B1. Nature of the data set: polymerase ribozyme fitness, log enrichment relative to wild type (log ratio); higher = more active; in vitro selection for triplet polymerase activity. The method in brief:
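Fitness compares each genotype's enrichment to that of the wild type on a logarithmic scale, averaging replicates with inverse-variance weights. The logarithm is base 2. Enrichment came from Illumina sequencing of input and output libraries after one triplicate round of in vitro selection, which included frozen incubation at −7 °C, of PCR-built, transcribed mutant libraries of each subunit of a heterodimeric triplet polymerase ribozyme. Only genotypes with ≥10 input reads and ≥1 read per output were kept.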
In the case of C10U G80C G84U C87A C105A U151G, the “polymerase ribozyme fitness (log ratio)” value is ≤ -4.2.

Regarding U9G A17G A52U C75G G84A C105U, the “polymerase ribozyme fitness (log ratio)” value was ≤ -4.2.

For U9C C93A, the “polymerase ribozyme fitness (log ratio)” value is ≤ -4.2.

Consider U9G A47G, for which the “polymerase ribozyme fitness (log ratio)” value was -3.86.

As for C10A C14U A26U A30G G84A U139G A142U, the “polymerase ribozyme fitness (log ratio)” value was ≤ -4.2.

On to U9A U31G C57U G74C G92C, for which the “polymerase ribozyme fitness (log ratio)” value is ≤ -4.2.

For the variant C10U A40G, the “polymerase ribozyme fitness (log ratio)” value is -4.12.

With U9G A41U U53A C96A U102A A150U, the “polymerase ribozyme fitness (log ratio)” value is ≤ -4.2.

Turning to G11C A12G A41U C76A G83A C103G C114A, the “polymerase ribozyme fitness (log ratio)” value was ≤ -4.2.

In the case of C10G C32A G58U G59U U130C, the “polymerase ribozyme fitness (log ratio)” value was ≤ -4.2.

U9A U15G G50C G94A U135C G143A: the “polymerase ribozyme fitness (log ratio)” value is ≤ -4.2.

Consider C10A A21G A29G C51U A52G U78C C95A A122U U146G, for which the “polymerase ribozyme fitness (log ratio)” value is ≤ -4.2.

On to C10G A89G, for which the “polymerase ribozyme fitness (log ratio)” value is ≤ -4.2.

Take C8U U13A A40C U44G C93G: the “polymerase ribozyme fitness (log ratio)” value was ≤ -4.2.

Turning to U9C C27U G84U G126U, the “polymerase ribozyme fitness (log ratio)” value is ≤ -4.2.

As for C10G C38U G50A U90A U127C G128U U145A, the “polymerase ribozyme fitness (log ratio)” value was ≤ -4.2.

Consider C10U A22G A49G A142C, for which the “polymerase ribozyme fitness (log ratio)” value was ≤ -4.2.

Consider U9C A24C A40C C93A C105G G141C, for which the “polymerase ribozyme fitness (log ratio)” value was ≤ -4.2.

In the case of C10A C93G, the “polymerase ribozyme fitness (log ratio)” value is ≤ -4.2.

Regarding C10G A52G C54U G58C C79A C95U, the “polymerase ribozyme fitness (log ratio)” value was -3.91.

With C8U C27U A37C U55A C87G U111A C118G G124A, the “polymerase ribozyme fitness (log ratio)” value is ≤ -4.2.

For the variant C10U A39C C57A G59C A66U G67U G81A C85G C105A U135C G140C G143C, the “polymerase ribozyme fitness (log ratio)” value was ≤ -4.2.

With C10G G11C A12G G70U C85G U101C G128A, the “polymerase ribozyme fitness (log ratio)” value was ≤ -4.2.

For the variant C10U A39G C54G C63A G70C C93U G141A, the “polymerase ribozyme fitness (log ratio)” value was ≤ -4.2.

For the variant G11A A12U C51G U55G G62C U90C C108G, the “polymerase ribozyme fitness (log ratio)” value was ≤ -4.2.

For the variant C10G A20C U33G C93A G94U C96G C114U U145A, the “polymerase ribozyme fitness (log ratio)” value is ≤ -4.2.

Consider C10G A12U A22G C35G G94A C95U C99A U111C, for which the “polymerase ribozyme fitness (log ratio)” value was ≤ -4.2.

Turning to G11A A41U A60G U77C C87A, the “polymerase ribozyme fitness (log ratio)” value is ≤ -4.2.

Take U9C C10G: the “polymerase ribozyme fitness (log ratio)” value was -4.15.

C10A A17C A41G C54G U55A C85U C95U U104G G126U A138G G152U: the “polymerase ribozyme fitness (log ratio)” value is ≤ -4.2.

For the variant C10U A52U C85A, the “polymerase ribozyme fitness (log ratio)” value is ≤ -4.2.

Consider U9A C87A, for which the “polymerase ribozyme fitness (log ratio)” value is ≤ -4.2.

As for C10G A52G U56A C96U G140U, the “polymerase ribozyme fitness (log ratio)” value was ≤ -4.2.

As for C10U A22U A29G U61A C95G, the “polymerase ribozyme fitness (log ratio)” value is -4.

Regarding C8U A22U A37C C57G C99A U148A G152A, the “polymerase ribozyme fitness (log ratio)” value is ≤ -4.2.

For C10G A41G A115G, the “polymerase ribozyme fitness (log ratio)” value is ≤ -4.2.

Take U9A A21U: the “polymerase ribozyme fitness (log ratio)” value is -3.81.

Consider U9G C18U A39G A49C C51A G94U A106G, for which the “polymerase ribozyme fitness (log ratio)” value was ≤ -4.2.

Consider G11A C27G U53A G83U G86A G140A, for which the “polymerase ribozyme fitness (log ratio)” value was ≤ -4.2.

With C10U G25C G80A C87G, the “polymerase ribozyme fitness (log ratio)” value is ≤ -4.2.

With C8U G67A U82G U90G C96A C105A C116A C125U U135A A147C U148G, the “polymerase ribozyme fitness (log ratio)” value is ≤ -4.2.

Take C8U C35U G80A G83A U102G U145C U146C: the “polymerase ribozyme fitness (log ratio)” value is ≤ -4.2.

Consider G11A A73G G92A A121G, for which the “polymerase ribozyme fitness (log ratio)” value was ≤ -4.2.

On to G11A A30C C99A C118U U145G, for which the “polymerase ribozyme fitness (log ratio)” value is ≤ -4.2.

Consider C10U A26U G42A A47U A89C C96U A107U G112C, for which the “polymerase ribozyme fitness (log ratio)” value was ≤ -4.2.

U9C A52G U53A C114G U145G: the “polymerase ribozyme fitness (log ratio)” value was ≤ -4.2.

Turning to U9G A19C A23G A39G C93G U139A G152U, the “polymerase ribozyme fitness (log ratio)” value is ≤ -4.2.

For the variant C10G C85G G92A C125G, the “polymerase ribozyme fitness (log ratio)” value is ≤ -4.2.

G11A G48A A52C G83A C87U A119C G124C: the “polymerase ribozyme fitness (log ratio)” value was ≤ -4.2.

As for C10U A39G G42U G59A A60C C63U A91U C105U A115C A142C, the “polymerase ribozyme fitness (log ratio)” value is ≤ -4.2.

For the variant C10A C54G G80C G81A C85U C129A U135C, the “polymerase ribozyme fitness (log ratio)” value is ≤ -4.2.

Consider U9G C85U G92U U145A, for which the “polymerase ribozyme fitness (log ratio)” value was ≤ -4.2.

As for C10G A37C G50A C95U C99A G143C, the “polymerase ribozyme fitness (log ratio)” value was ≤ -4.2.

Turning to U9C C18G A21G A29U C87G, the “polymerase ribozyme fitness (log ratio)” value was ≤ -4.2.

With G11A C14A A40G C79A C93A G124A, the “polymerase ribozyme fitness (log ratio)” value is ≤ -4.2.

Consider G11A C51G C87G A89U C125A U135G, for which the “polymerase ribozyme fitness (log ratio)” value was ≤ -4.2.

Consider G11A C27A A73C G74A G81A A89U C93G G126U, for which the “polymerase ribozyme fitness (log ratio)” value is ≤ -4.2.

Turning to U9C C18U G71C U82A C85G U146G A150C, the “polymerase ribozyme fitness (log ratio)” value is ≤ -4.2.

For U9C G58C A91G C105G A110G, the “polymerase ribozyme fitness (log ratio)” value is ≤ -4.2.

As to C8U U33A C38U G62A, the “polymerase ribozyme fitness (log ratio)” value is ≤ -4.2.

Consider C10U A28U G94A U127G, for which the “polymerase ribozyme fitness (log ratio)” value was -4.04.

For C10G C95U, the “polymerase ribozyme fitness (log ratio)” value was -3.16.

As to C10G A52U C72U G86U C93U C116G G124A U144C, the “polymerase ribozyme fitness (log ratio)” value was ≤ -4.2.

Take U9G A17G A41G U53A U77G G84U C116A G141A A147G: the “polymerase ribozyme fitness (log ratio)” value was ≤ -4.2.

As for C10U C76U A91U C95A A113U A120U, the “polymerase ribozyme fitness (log ratio)” value was ≤ -4.2.

Regarding U9A C38A C72A G84A C125U, the “polymerase ribozyme fitness (log ratio)” value was ≤ -4.2.

As to C10G U61C G86C C105G A119C, the “polymerase ribozyme fitness (log ratio)” value is ≤ -4.2.

Take C10A U53A C85A C96G G100A U127C U146A: the “polymerase ribozyme fitness (log ratio)” value is ≤ -4.2.

Regarding C10A C32G C38U U56G A60G C95A C131U G140U, the “polymerase ribozyme fitness (log ratio)” value is -4.19.

Consider U9G G58C C93G C118U G143A U144C, for which the “polymerase ribozyme fitness (log ratio)” value was ≤ -4.2.

Consider C10A C87U, for which the “polymerase ribozyme fitness (log ratio)” value is -3.47.

For the variant C8U A17G A30U C95U G126A U148G, the “polymerase ribozyme fitness (log ratio)” value was ≤ -4.2.

As for C8U G92C U111C, the “polymerase ribozyme fitness (log ratio)” value was ≤ -4.2.

Regarding C10U C54A C69U C75U C87A, the “polymerase ribozyme fitness (log ratio)” value is ≤ -4.2.

Consider G11A A91G C114U U144C, for which the “polymerase ribozyme fitness (log ratio)” value was -4.14.

As to G11A U82A, the “polymerase ribozyme fitness (log ratio)” value was -1.4.

As for C10U G25U A40U C79U G84A A142C, the “polymerase ribozyme fitness (log ratio)” value was ≤ -4.2.

On to C10G A21U A91G, for which the “polymerase ribozyme fitness (log ratio)” value is ≤ -4.2.

Take C10A G59A A91U U111A U127C A138U A150G: the “polymerase ribozyme fitness (log ratio)” value was ≤ -4.2.

Take C8U A39C G59C C96U C103A C114U C116U: the “polymerase ribozyme fitness (log ratio)” value was ≤ -4.2.

As to C8U A52G, the “polymerase ribozyme fitness (log ratio)” value was -3.63.

For U9C C14U C57G C93G G140U, the “polymerase ribozyme fitness (log ratio)” value is ≤ -4.2.

As for U9C C54A C87G U134A, the “polymerase ribozyme fitness (log ratio)” value was ≤ -4.2.
